We go through one substance from publication doi:10.1101/2021.02.16.431366.

For this assay, the target named is mCherry-TRPV5 (rabbit) (UniProt Q9XSM3). Nature of the assay: single molecule photobleaching counting.
Chain of mCherry-TRPV5 (rabbit) (Q9XSM3 whole entry): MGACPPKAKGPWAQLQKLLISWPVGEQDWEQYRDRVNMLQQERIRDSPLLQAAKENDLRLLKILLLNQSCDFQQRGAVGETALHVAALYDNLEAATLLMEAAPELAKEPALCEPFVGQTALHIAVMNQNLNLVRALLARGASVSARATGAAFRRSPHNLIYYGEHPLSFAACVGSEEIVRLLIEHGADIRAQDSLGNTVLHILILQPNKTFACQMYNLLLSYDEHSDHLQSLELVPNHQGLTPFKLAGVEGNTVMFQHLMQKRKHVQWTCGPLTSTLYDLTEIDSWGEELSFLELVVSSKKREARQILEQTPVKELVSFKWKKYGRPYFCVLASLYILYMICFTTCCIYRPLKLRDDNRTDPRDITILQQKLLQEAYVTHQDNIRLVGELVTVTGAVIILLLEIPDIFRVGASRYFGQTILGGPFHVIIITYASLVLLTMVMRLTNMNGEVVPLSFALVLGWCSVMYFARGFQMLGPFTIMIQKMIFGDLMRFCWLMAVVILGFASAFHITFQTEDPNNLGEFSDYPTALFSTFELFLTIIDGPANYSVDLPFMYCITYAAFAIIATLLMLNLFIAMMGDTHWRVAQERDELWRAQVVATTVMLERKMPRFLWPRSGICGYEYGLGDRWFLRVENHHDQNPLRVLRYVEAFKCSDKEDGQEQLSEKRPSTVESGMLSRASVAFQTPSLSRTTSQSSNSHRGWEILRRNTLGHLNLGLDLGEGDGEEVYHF

Turning to “CaM-eGFP (from UniProt P0DP29 1-149) (natural protein)”, the stoichiometry N (CaM molecules per TRPV5 tetramer) was found to be 2.
